# Results reported in patent US20250206841A1 (ADEPT THERAPEUTICS, published 2025).
# Numbering of substitutions follows the chain as printed.
# T1: human Trop-2 expressed on cell surface (human, UniProt P09758 27-323)
# T1 construct: whole, on cells; also called cell surface Trop-2
# T1 sequence (looked up): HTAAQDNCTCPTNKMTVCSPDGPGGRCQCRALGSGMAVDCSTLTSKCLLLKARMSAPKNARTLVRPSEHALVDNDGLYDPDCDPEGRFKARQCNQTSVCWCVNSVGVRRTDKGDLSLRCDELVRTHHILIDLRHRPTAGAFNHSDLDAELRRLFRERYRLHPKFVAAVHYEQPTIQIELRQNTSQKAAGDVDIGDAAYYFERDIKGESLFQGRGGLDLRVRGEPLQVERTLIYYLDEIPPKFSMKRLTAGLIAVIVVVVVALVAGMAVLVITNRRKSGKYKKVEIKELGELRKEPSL
# T2: human Trop-2-His protein (human, UniProt P09758 27-274)
# T2 construct: extracellular domain; Assay paragraphs say only 'Trop-2-His'; also called hTrop-2; Kactus Cat #TRP-HM121; not shown: His tag
# T2 sequence (looked up): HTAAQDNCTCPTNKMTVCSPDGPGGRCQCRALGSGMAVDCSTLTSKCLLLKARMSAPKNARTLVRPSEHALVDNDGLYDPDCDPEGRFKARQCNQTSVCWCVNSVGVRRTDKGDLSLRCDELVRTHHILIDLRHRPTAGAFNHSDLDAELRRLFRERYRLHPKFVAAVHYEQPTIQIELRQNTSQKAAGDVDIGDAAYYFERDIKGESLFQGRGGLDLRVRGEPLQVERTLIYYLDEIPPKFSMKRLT
# T3: cynomolgus Trop-2-His protein (cynomolgus, UniProt P09758 27-274 (human entry))
# T3 construct: also called cynmolgus Trop-His; Kactus Cat #TRP-CM121; not shown: His tag
# T3 chain: T2 sequence (looked up) with M36V, S67N, G139S, I204V
# B1: 10A9 (antibody, V domains shown)
# VH: QSLEESGGDLVQPGASLTLTCKASGFDLNNYAMLWVRQAPGKGLEWIGCIYISGGTTYFASWATGRFAISKTSSTTVTLQMTSLTAADTATYFCARDDGTTSYYLNLWGPGTLVTVSS
# VL: YDMTQTPASVSAAVGGTVTIKCQASEDIYSLLAWYQQKPGQPPKLLIYGASNLESGVPSRFKGSGSGTEYTLTISDLECDDAATYYCQQAYTIGNIDNAFGGGTEVVVK
# notes: Rabbit-derived clone; LEM construct: VH + rabbit IgG CH1 + human IgG1 CH2-CH3
# B2: 10A9-2 (antibody, V domains shown)
# VH: B1 VH with C49S
# VL: B1 VL with C79A
# B3: 5D4 (antibody, V domains shown)
# VH: QQLEESGGGLVKPEGSLTLTCKGSGFDFSGTYWMWWVRQAPGKGLEWIACIYVGSGSSTYYASWAKGRFTISSTSSTAVTLQATSLTAADTATYFCARGATNNVFMNYFNLWGPGTLVTVSS
# VL: FEMTQTPSSVSEPVGGTVTIKCQASEDISSNLGWYQQKPGQPPKLLIYGASTLASGVPSRFKGSGSGTEFTLTISDLECADAATYYCQTSYYIDDGVNGFGGGTEVVVK
# notes: as for B1
# B4: 5D4-2 (antibody, V domains shown)
# VH: B3 VH with C50S
# VL: B3 VL with C79A
# B5: 5D4-1 (antibody, V domains shown)
# VH: B3 VH with C50P
# VL: B3 VL with C79P
# B6: 74F11/15F5 (antibody, human IgG1, V domains shown)
# VH: QEQLKESGGGLVQPGGSLKLSCKASGFDFNNYGMSWVRQAPGKGLEWIAYIYPAFHNTYYANWVNGRFTISSDNAQNTVDLQLNSLTAADTATYFCARDAGSTDYNFNLWGPGTLVTVSS
# VL: DVVMTQTPASVEAAVGGTVTIKCQASEDIERYLAWYQQKPGQPPKLLIYEASKLPSGVSSRFSGSGYGTEFTLTISGVECADAATYYCQQALTIGYVDNPFGGGSEVVVK
# notes: LEM construct: VH + rabbit IgG CH1 + human IgG1 CH2-CH3
# Target: T1, human Trop-2 expressed on cell surface
# Assay: flow cytometry, MDA-MB-231-GFP cells
# Method: (§1) Cells were then resuspended in FACS buffer (1×DPBS/1% FBS) at 10⁶/ml concentration. One hundred microliter (100 μl) of cells were aliquoted into a single well in 96 well plates. The antibodies to be tested were serially diluted at 1:3 fold starting at 15 μg/mL and were then added into each well. The antibodies were mixed with cells and the mixtures were incubated on ice for 1 hour. After washing with FACS buffer, one hundred microliter (100 μl) of 1:400 diluted PE-conjugated anti-human Fc secondary antibody (Jackson Immuno Research) was added into each well and incubated for 30 minutes on ice. After washing with FACS buffer, stained cells were resuspended at diluted 7-ADD (Biolegend, used at 1:100 dilution) and analyzed on Guava 11HT or 5HT (Luminex). Data was analyzed using Flowjo software. EC₅₀ values were calculated using GraphPad Prism. Sacitnzurnab govitecan was used as positive control. Anti-HEL.hIgG1 was used as isotype negative control. Similar assay was performed using MCF-7 cells (known to express human Trop-2).
row,Binder,EC50 [pM]
1,B1,40
2,B2,40
3,B3,10
4,B4,40
5,B5,10
6,B6,20

# Target: T2, human Trop-2-His protein
# Assay: ELISA, coated Trop-2 protein
# Method: (§2) Purified antibodies were tested by ELISA to confirm their binding and affinity against human and cynomolgus Trop-2-His protein. Briefly, 96-well Maxisorp plates (Nunc) were coated with 100 μl/well of 0.5 μg/ml human (Kactus Cat #TRP-HM121, or Sino Biological, Cat #10428-HO8H) or cynomolgus Trop-2 protein (Kactus Cat #TRP-CM121, or Sino Biological, Cat #90893-CO8H) diluted in 1×PBS (GIBCO) overnight at 4° C. Plates were washed four times with 300 μl/well washing buffer (1×PBST, diluted from 20×PBST (Thermo Scientific) with distilled water)) and then blocked with 300 μl/well of blocking buffer (1×PBST/3% BSA (BSA, Sigma)) for 2 hours at RT on plate shaker at 100 rpm. Plates were washed and added with 100 μl/well of testing antibodies, which were serial diluted with assay buffer (PBST/1% BSA). The antibodies were incubated at room temperature for 2 hours on plate shaker at 100 rpm. Plates were washed. One hundred microliters (100 μl) of 1:10,000 diluted horseradish peroxidase (HRP) conjugated anti-hIgG antibody (Jackson Immuno Research) was added into each well and incubated at room temperature for 1 hour on plate shaker at 100 rpm. Plates were washed and added with 100 μl/well TMB substrate for color development in dark at room temperature for up to 10 minutes. After addition of 50 μl/well of stop solution (1N H₂SO₄), plates were read at 450 nm on a plate reader (SpectraMax M5). EC₅₀ values were calculated using Graphpad Prism. Sacituzumab govitecan, was used as positive control. Anti-HEL.hIgG1 was used as isotype control.
row,Binder,EC50 [pM]
1,B1,17
2,B2,14
3,B3,16
4,B4,15
5,B5,18
6,B6,13

# Target: T3, cynomolgus Trop-2-His protein
# Assay: ELISA, coated Trop-2 protein
# Method: as §2
row,Binder,EC50 [pM]
1,B1,15
2,B2,16
3,B3,14
4,B4,18
5,B5,23
6,B6,14

# Target: T1, human Trop-2 expressed on cell surface
# Assay: cell-based or functional assay
Binder,"Internalization %, MDA-MB-231, 0.25 µg/ml, 2 h [%]","Internalization %, MDA-MB-231, 0.25 µg/ml, 4 h [%]","Internalization %, MDA-MB-231, 0.5 µg/ml, 2 h [%]","Internalization %, MDA-MB-231, 0.5 µg/ml, 4 h [%]","Internalization %, MDA-MB-231, 1 µg/ml, 2 h [%]","Internalization %, MDA-MB-231, 1 µg/ml, 4 h [%]","Internalization %, MDA-MB-231, 2 µg/ml, 2 h [%]","Internalization %, MDA-MB-231, 2 µg/ml, 4 h [%]"
B1,54,57,47,53,40,55,38,49
B2,46,55,44,55,43,57,45,58
B3,56,65,49,66,65,51,60,66
B4,55,61,48,57,52,58,57,62
B5,58,66,56,61,59,64,57,63
B6,42,52,37,45,42,48,39,46

# Target: T1, human Trop-2 expressed on cell surface
# Assay: cell-based or functional assay
# Remark: another data set of the same source
Binder,"EC50 of ADCC (NFAT-CD16 reporter), MCF-7 [pM]","EC50 of ADCC (NFAT-CD16 reporter), MDA-MB-231 [pM]"
B1,320,60
B2,280,70
B3,570,70
B4,520,80
B5,610,110
B6,270,90

# Target: T1, human Trop-2 expressed on cell surface
# Assay: cell-based or functional assay
# Remark: another data set of the same source
Binder,"Internalization %, MCF-7, 0.25 µg/ml, 1 h [%]","Internalization %, MCF-7, 0.25 µg/ml, 2 h [%]","Internalization %, MCF-7, 0.25 µg/ml, 4 h [%]","Internalization %, MCF-7, 0.5 µg/ml, 1 h [%]","Internalization %, MCF-7, 0.5 µg/ml, 2 h [%]","Internalization %, MCF-7, 0.5 µg/ml, 4 h [%]"
B1,15,33,45,26,39,49
B2,28,37,48,31,47,64
B3,44,52,64,62,59,74
B4,51,67,58,23,43,61
B5,59,57,62,42,56,73
B6,22,35,64,22,54,50

# Target: T1, human Trop-2 expressed on cell surface
# Assay: flow cytometry, MCF-7 cells
# Method: as §1
row,Binder,EC50 [pM]
1,B1,1400
2,B2,1800
3,B3,1200
4,B4,800
5,B5,1000
6,B6,900
